Where two headings read alike, the source gives them in different places.
Key:
[1] = test system: late asthmatic response (LAR); conditions: 400/12 μg; J ALLERGY CLIN IMMUNOL VOLUME 119, NUMBER 2, pp 322-327; cited from earlier work
[2] = test system: late asthmatic response (LAR); experiment: Published allergen challenge LAR data for budesonide/formoterol; format: in vivo; conditions: 400/12 μg; calculated from published data
Source text: Published data from other widely asthma treatment budosenide/formoterol (ICS/LABA, inhaled corticosteroid+long-acting beta agonist) combination was used in a similar fashion to calculate its efficacy and results compared with CSJ117 in Table 10.

[3] = in vivo
Description: Single dose of 1 mg (Cohort 1), 3 mg (Cohort 2), 9 mg (Cohort 3), 32 mg (Cohort 4), 64 mg (Cohort 5), 160 mg (Cohort 6) or placebo was administered via inhalation. First-in-human study was conducted in 51 healthy volunteers (HVs), of which 37 subjects were exposed to CSJ117 and 12 to placebo.
The PK analysis set for the FIH SAD Study included 37 subjects. PK samples were collected up to 28 days post dose.

[4] = Healthy Japanese SAD study: serum CSJ117 pharmacokinetics; conditions: cross-study comparison at 9 and 32 mg
Description: (§2) In addition, the PK analysis set for the healthy Japanese SAD Study included 18 subjects, six subjects per single inhaled dose of 9, 16 and 32 mg administered via Concept 1 device.

[5] = test system: late asthmatic response (LAR); experiment: Hill equation simulation of CSJ117 dose-response (LAR efficacy); set-up: species or system human; conditions: for Predicted efficacy: range over Emax scenarios; for ED50: Dose = 4 mg, E = 47.6%, Hill slope n = 1
Description: Simulation of Dose-Response Curves of CSJ117 from Doses Ranging from 0.5 to 8 mg:
% Efficacy of CSJ117 in PoC study compared to placebo was calculated using following formula: % E=[(B−A)/B]×100, where, E=Efficacy; A and B are LAR measured by max fall % FEV1 value in treated and placebo groups, respectively.
Maximum efficacy (Emax) of CSJ117 is unknown at this time and three potential values of Emax are possible:
From Emax and ED50 in each scenario above, a dose-response curve was generated using Hill equation to assess range of efficacy values resulting from 0.5 to 8 mg once daily dose of CSJ117 (FIGS. 6 and 7). Efficacy due to 0.5 mg and 8 mg once daily dose of CSJ117 is predicted to range from 10-35% and 65-88% of maximum effect, respectively. As visible in plots of FIGS. 6 and 7, the planned dose range of 0.5, 1, 2, 4, and 8 mg o.d. of CSJ117 during Ph2B (Example 4) is expected to adequately describe the dose-response for CSJ117.

[6] = Phase 2a bronchoprovocation study: safety and tolerability; format: in vivo; conditions: 12 weeks
Source text: (§1) This was a non-confirmatory, randomized, subject- and investigator-blinded, placebo-controlled, parallel-design, multi-center bronchoprovocation study. […] Two sequential dose cohorts were enrolled for this study. • Cohort 1: 24 subjects (12 active and 12 placebo) • Cohort 2a: 4 subjects (3 active and 1 placebo)
No adverse events (AE) imbalance observed across treatment groups. […] No subject discontinued study drug due to an adverse event. The most frequent treatment-emergent adverse events were headache, nasopharyngitis, and oropharyngeal pain.

[7] = human, in vivo, inhaled or intranasal, 32 mg
Description: as §2

[8] = First-in-human single ascending dose study: safety and tolerability; format: in vivo
Description: The safety, tolerability and PK of CSJ117 have been evaluated in healthy volunteers (HV) in a single ascending dose (SAD) study.
A first-in-human, randomized, subject-blind, placebo controlled, single ascending dose study was conducted to assess the safety, tolerability and pharmacokinetics of CSJ117 in adult healthy subjects. Single dose of 1 mg (Cohort 1), 3 mg (Cohort 2), 9 mg (Cohort 3), 32 mg (Cohort 4), 64 mg (Cohort 5), 160 mg (Cohort 6) or placebo was administered via inhalation.

[9] = GLP monkey toxicity study: dose and exposure multiples versus human 4 mg QD dose; format: in vivo, cynomolgus monkey
Source text: The rationale for a 12-week study treatment duration was based on the following: (i) the 12-week treatment period was warranted from a safety perspective given the data from the 13-week cynomolgus monkey toxicity study; (ii) the 12-week dosing period was anticipated to provide greater information on the PK profile of CSJ117 in humans (as compared to a shorter study duration); (iii) completing 12-weeks of dosing prior to dose escalation(s) provided greater safety information, as systemic exposure is expected to have achieved steady state; (iv) 12 weeks was expected to be sufficient duration to allow assessment of PD effects in the AIC.
Lung weight scaling was selected for the HED calculation due to the CSJ117-related changes in the respiratory tract and the lack of significant systemic side effects in the monkey toxicity studies. • Exposure multiples were also calculated to compare the observed systemic exposure in monkeys with the systemic exposure in humans, based on the observed single dose PK data in healthy subjects, assuming either linear or nonlinear PK. For multiple daily inhalations in humans, assuming linear and time-independent PK (i.e., a 2.4 fold accumulation ratio), the estimated human systemic exposure at steady state for a 4 mg dose was 948-fold below the monkey Day 91 systemic exposure.

[10] = test system: allergen inhalation challenge (AIC) in subjects with mild atopic asthma; experiment: Phase 2a allergen bronchoprovocation study (LAR, EAR, FeNO); format: in vivo, human
Source text: CSJ117, as an inhaled Fab targeting TSLP, offers the potential to be an efficacious therapy for severe asthma with a favorable safety and tolerability profile. This study used inhaled allergen bronchoprovocation testing as a model for allergic asthma, in an effort to predict CSJ117 efficacy in the eventual severe asthma patient population. As a model for allergic asthma, standardized inhaled allergen bronchoprovocation testing can induce the acute and some of the more chronic features of asthma in human subjects with mild atopic asthma. In sensitized subjects, inhalation of a relevant allergen results in acute bronchoconstriction (the early asthma response or EAR [EAR defined as ≥20% fall in forced expiratory volume in 1 second (FEV1) between 0-2 hours after inhalation of allergen] Boulet et al 2007). In approximately 50% of subjects the EAR is followed by an inflammatory airway response with prolonged airway narrowing (the late asthma response or LAR [LAR defined as ≥15% fall in FEV1 between 3-7 hours after inhalation of allergen] Boulet et al 2007). In general, inhibition of the LAR in the allergen bronchoprovocation model is a good predictor of clinical efficacy in the moderate to severe asthma patient population (Diamant et al 2013). The objectives of this allergen bronchoprovocation study were to characterize the safety, tolerability, pharmacokinetics (PK) and pharmacodynamic (PD) effects of CSJ117 in subjects with mild atopic asthma over 12 weeks of treatment to determine if further clinical development is warranted.
as §1
There was only one active dose used in the study, i.e. CSJ117 4 mg used for both Cohort 1 & 2a. Placebo subjects from all cohorts were pooled for analyses.
For all cohorts, the study consisted of a 35-day screening period, a baseline evaluation, a 12-week treatment period (consisting of a single dose on Day 1, safety evaluation Days 1-3 and commencement of QD dosing on Day 3) and a 30-day follow up period (FIG. 3).
On Day 1 (Visit 101) of the treatment period, after completion of all pre-dose assessments, subjects were randomized and received a single dose of CSJ117 or placebo in the morning and then underwent safety assessments, observation and PK sampling in-clinic for a period of 8 hours post-dose. On Day 2 (Visit 102), the subject returned to the clinic for evaluation and PK sampling. On Day 3 (Visit 103), the subjects returned to clinic for evaluation. On Day 3 (Visit 103) subjects took an inhaled dose of CSJ117 or placebo in the clinic. For the remaining duration of the 12-week treatment period, subjects took daily inhaled doses of CSJ117 or placebo, in the clinic on study visit days or at home. […]
Dog, cat, horse, mouse, cattle, rat and bird allergens were included in the challenge. Table 6 and Table 7 show the fall in FEV1 values and percentages, respectively, after the allergen challenges. […]
The early asthmatic response (EAR) after an allergen inhalation challenge on Day 42 and Day 84 was assessed by measuring the (1) area under the curve (AUC) time-adjusted percent fall in the FEV1, (2) maximum percent fall in the FEV1, and (3) minimum absolute FEV1 between 0 and 2 hours after […].

[11] = human, inhaled or intranasal, 1 mg
[12] = human, inhaled or intranasal, 3 mg
[13] = human, inhaled or intranasal, 9 mg
[14] = human, inhaled or intranasal, 32 mg
[15] = human, inhaled or intranasal, 64 mg
[16] = human, inhaled or intranasal, 160 mg
[17] = Day 42, 4 mg QD inhaled (N = 12)
[18] = Day 84, 4 mg QD inhaled (N = 13)

## Budesonide/formoterol
[1]
  LAR Treatment (A), maximal fall % FEV1: 4.2%
[2]
  E, % [(B-A)/B]*100: 80.2%
  LAR B-A (placebo minus treatment), maximal fall % FEV1: 17

B1: CSJ117: potent neutralizing antibody fragment (Fab) directed against human TSLP; heavy chain SEQ ID NO: 9, light chain SEQ ID NO: 19 (antibody)
heavy: EVQLVESGGGLVKPGGSLRLSCAASGFTFSDYWMHWVRQAPGKGLEWVGHIKSKTDAGTTDYAAPVKGRFTISRDDSKNTLYLQMNSLKTEDTAVYYCAREIYYYAFDSWGQGTLVTVSSASTKGPSVFPLAPSSKSTSGGTAALGCLVKDYFPEPVTVSWNSGALTSGVHTFPAVLQSSGLYSLSSVVTVPSSSLGTQTYICNVNHKPSNTKVDKRVEPKSC
light: SYELTQPLSVSVALGQTARITCSGDNIGSKYVHWYQQKPGQAPVLVIYGDNERPSGIPERFSGSNSGNTATLTISRAQAGDEADYYCQAADWVDFYVFGGGTKLTVLGQPKAAPSVTLFPPSSEELQANKATLVCLISDFYPGAVTVAWKADSSPVKAGVETTTPSKQSNNKYAASSYLSLTPEQWKSHRSYSCQVTHEGSTVEKTVAPTECS
[3]; human, inhaled or intranasal
  mean terminal elimination half-life (T1/2): 17.4 to 21.1 h
  median time to achieve maximum CSJ117 serum concentration (Tmax): 6 to 21 h
[3]; [11]
  AUClast: 0.109 µg·h/mL
  Cmax: 0.0059 µg/mL
  T1/2: 18.5 h
  Tmax: 21.0 h
[3]; [12]
  AUClast: 0.127 µg·h/mL
  Cmax: 0.00565 µg/mL
  T1/2: 18.7 h
  Tmax: 12.0 h
[3]; [13]
  AUCinf: 0.597 µg·h/mL
  AUClast: 0.353 µg·h/mL
  CL/F: 15.6 L/h
  Cmax: 0.0125 µg/mL
  T1/2: 21.1 h
  Tmax: 12.0 h
  Vz/F: 481 L
[3]; [14]
  AUCinf: 1.71 µg·h/mL
  AUClast: 1.61 µg·h/mL
  CL/F: 22.0 L/h
  Cmax: 0.0576 µg/mL
  T1/2: 17.4 h
  Tmax: 6.00 h
  Vz/F: 555 L
[3]; [15]
  AUCinf: 2.65 µg·h/mL
  AUClast: 2.5 µg·h/mL
  CL/F: 28.5 L/h
  Cmax: 0.0614 µg/mL
  T1/2: 20.1 h
  Tmax: 12.0 h
  Vz/F: 815 L
[3]; [16]
  AUCinf: 5.75 µg·h/mL
  AUClast: 5.59 µg·h/mL
  CL/F: 33.0 L/h
  Cmax: 0.152 µg/mL
  T1/2: 18.2 h
  Tmax: 9.00 h
  Vz/F: 915 L
[3]
  CSJ117 serum exposure versus dose: increased in a dose-dependent manner
[4]
  AUCinf in Japanese relative to non-Japanese subjects: 0.6-1.5 fold
  Cmax in Japanese relative to non-Japanese subjects: 0.5-1.1 fold
[5]; 0.5 mg once daily dose
  Predicted efficacy: 10-35 % of maximum effect
[5]; 8 mg once daily dose
  Predicted efficacy: 65-88 % of maximum effect
[5]; Scenario 1: Emax 100%
  ED50: 4.4 mg
[5]; Scenario 2: Emax 80%
  ED50: 2.3 mg
[5]; Scenario 3: Emax 60%
  ED50: 1.0 mg
[6]; 4 mg QD
  Severe or serious adverse events: No subject developed a severe or serious adverse event
[6]; mild asthmatics, 4 mg QD
  Safety and tolerability: safe and well tolerated
[6]; subjects receiving CSJ117 4 mg QD
  rate of moderately severe adverse events: 21.6%
[7]
  mean T1/2: 18.6 to 22.4 h
[8]; 7/37 CSJ117 subjects, single inhaled doses 1-160 mg
  Subjects with adverse events (AEs): 19 % of subjects
[8]; FIH study
  Deaths or serious adverse events: no deaths or serious adverse events
[9]; cynomolgus monkey, in vivo
  Accumulation ratio in humans: 2.4 fold
  Systemic accumulation ratio observed in monkeys: 148 fold
[9]; lung weight scaling
  Dose multiple: human equivalent dose of monkey NOAEL versus 4 mg QD: 51.5 fold
[10]; CSJ117 4 mg OD, LAR max fall % FEV1
  E, % [(B-A)/B]*100: 47.6%
[10]; CSJ117 4 mg OD, PoC study
  LAR B-A (placebo minus treatment), Max fall % FEV1: 8.42
  LAR Treatment (A), Max fall % FEV1: 9.28%
[10]; Day 42, 4 mg QD
  LAR time adjusted AUC 3-7 h, Difference (CSJ117-Placebo) (Table 6): −2.64%
  LAR time adjusted AUC 3-7 h, Difference (CSJ117-Placebo) (Table 7): −2.90%
  LAR time adjusted AUC 3-7 h, Difference (CSJ117-Placebo) (Table 8): −1.02%
  LAR time adjusted AUC 3-7 h, Difference (CSJ117-Placebo) (Table 9): −4.70%
[10]; [17]
  LAR time adjusted AUC 3-7 h, model-based mean estimate (Table 6): 13.11%
  LAR time adjusted AUC 3-7 h, model-based mean estimate (Table 7): 6.46%
  LAR time adjusted AUC 3-7 h, model-based mean estimate (Table 8): 15.11%
  LAR time adjusted AUC 3-7 h, model-based mean estimate (Table 9): 27.85%
[10]; Day 84, 4 mg QD
  LAR time adjusted AUC 3-7 h, Difference (CSJ117-Placebo) (Table 6): −8.42%
  LAR time adjusted AUC 3-7 h, Difference (CSJ117-Placebo) (Table 7): −7.18%
  LAR time adjusted AUC 3-7 h, Difference (CSJ117-Placebo) (Table 8): −4.26%
  LAR time adjusted AUC 3-7 h, Difference (CSJ117-Placebo) (Table 9): −5.41%
[10]; [18]
  LAR time adjusted AUC 3-7 h, model-based mean estimate (Table 6): 9.28%
  LAR time adjusted AUC 3-7 h, model-based mean estimate (Table 7): 4.20%
  LAR time adjusted AUC 3-7 h, model-based mean estimate (Table 8): 12.83%
  LAR time adjusted AUC 3-7 h, model-based mean estimate (Table 9): 25.48%
[10]; Day 84, p-value of 0.050
  minimum absolute FEV1 between 3 and 7 hours compared with placebo: statistically less
[10]; day 84, 4 mg daily inhalation, vs placebo 11.38%, p=0.008
  AUC of the time-adjusted fall in FEV1 during the late response: 4.20%
[10]; day 84, 4 mg daily inhalation, vs placebo 17.70%, P=0.029
  maximum fall % FEV1 during the late response: 9.28%
[10]; over the 12-week treatment period, 4 mg QD
  fractional exhaled nitric oxide (FeNO) compared with placebo: trend for a reduction

— US20230082287A1, “METHODS OF TREATING AN INFLAMMATORY OR OBSTRUCTIVE AIRWAY DISEASE USING ANTI-TSLP ANTIBODY” (Novartis AG, priority 2020, published 2023)
